# Molecular target: RD1-MART1^HIGH Y93Fα, yeast displayed (human)
# Assay: flow cytometry on cells
substance,measurement,value
MART1/HLA-A2 monomer (from UniProt P61769 21-119) (peptide-MHC),fold weaker binding than RD1-MART1^HIGH,10 fold

# Reference: article PMC4938795
